We go through 81 variants from PMC8558838 (The Journal of Experimental Medicine, 2021).

B1: human LIGHT extracellular domain (L83-V240) [human] / WT hHVEM (L39-V202) fused with a PD-L1 transmembrane domain and EGFP, on cells [human] (parent complex)
chain 1: LIQERRSHEVNPAAHLTGANSSLTGSGGPLLWETQLGLAFLRGLSYHDGALVVTKAGYYYIYSKVQLGGVGCPLGLASTITHGLYKRTPRYPEELELLVSQQSPCGRATSSSRVWWDSSFLGGVVHLEAGEKVVVRVLDERLVRLRDGTRSYFGAFMV
chain 2: LPSCKEDEYPVGSECCPKCSPGYRVKEACGELTGTVCEPCPPGTYIAHLNGLSKCLQCQMCDPAMGLRASRNCSRTENAVCGCSPGHFCIVQDGDHCAACRAYATSSPGQRVQKGGTESQDTLCQNCPPGTFSPNGTLEECQHQTKCSWLVTKAGAGTSSSHWV
B2: full-length mouse BTLA-EGFP, on cells [mouse] / full-length WT mouse HVEM-mCherry, on cells [mouse] (parent complex)
chain 1: EKATKRNDEECPVQLTITRNSKQSARTGELFKIQCPVKYCVHRPNVTWCKHNGTICVPLEVSPQLYTSWEENQSVPVFVLHFKPIHLSDNGSYSCSTNFNSQVINSHSVTIHVRERTQNSSEHPLITVSDIPDATNASGPSTMEERPGRTWLLYTLLPLGALLLLLACVCLLCFLKRIQGKEKKPSDLAGRDTNLVDIPASSRTNHQALPSGTGIYDNDPWSSMQDESELTISLQSERNNQGIVYASLNHCVIGRNPRQENNMQEAPTEYASICVRS
chain 2: QPSCRQEEFLVGDECCPMCNPGYHVKQVCSEHTGTVCAPCPPQTYTAHANGLSKCLPCGVCDPDMGLLTWQECSSWKDTVCRCIPGYFCENQDGSHCSTCLQHTTCPPGQRVEKRGTHDQDTVCADCLTGTFSLGGTQEECLPWTNCSAFQQEVRRGTNSTDTTCSSQVVYYVVSILLPLVIVGAGIAGFLICTRRHLHTSSVAKELEPFQEQQENTIRFPVTEVGFAETEEETASN
B3: hCD160-6×His tag protein [human] / WT hHVEM (L39-V202) fused with a PD-L1 transmembrane domain and EGFP, on cells [human] (parent complex)
chain 1: GCINITSSASQEGTRLNLICTVWHKKEEAEGFVVFLCKDRSGDCSPETSLKQLRLKRDPGIDGVGEISSQLMFTISQVTPLHSGTYQCCARSQKSGIRLQGHFFSILFTETGNYTVTGLKQRQHLEFSHNEGTLS
chain 2: B1 chain 2
B4: mouse CD160 (30I-154H) with C-terminal …, biotinylated [modified: biotin; biotin] [mouse] / full-length WT mouse HVEM-mCherry, on cells [mouse] (parent complex)
chain 1: IHVTSSASQKGGRLDLTCTLWHKKDEAEGLILFWCKDNPWNCSPETNLEQLRVKRDPETDGITEKSSQLVFTIEQATPSDSGTYQCCARSQKPEIYIHGHFLSVLVTGNHTEIRQRQRSHPDFSH
chain 2: B2 chain 2

One assay covers variants of B1. Briefly: flow cytometry on cells stained with soluble protein. (In general: Flow cytometry measures light scatter and fluorescence of single cells or particles in a stream.)
As for chain 2 L52A, the ratio to parent turned out to be 0.9.
Same read-out and setting: as for chain 2 L49A, the figure is 1.2.
Still for that read-out and setting: as for chain 2 G51A, the figure is 1.2.
For the variant chain 2 N50A, the ratio to parent was determined as 0.7.
For chain 2 E77A, the ratio to parent came to 1.
On the same count and under the same terms, as for chain 2 L56A, the figure is 1.8.

The variants in a further assay derive from B2. Briefly: flow cytometry, cell–cell method.
Take chain 2 K77A: the ratio to parent stood at 1.3.
For the variant chain 2 L52R, the ratio to parent amounted to 0.9.
Same read-out and setting: as for chain 2 L52A, the figure is 1.
On the same count and under the same terms, as for chain 2 L56A, the figure is 1; as for chain 2 H96D, 0.9.
Same read-out and setting: as for chain 2 N50A, the figure is 1.1; as for chain 2 A38D, 1.2; as for chain 2 A38W, 1.2.
As to chain 2 G34D, the ratio to parent was found to be 0.3.
Still for that read-out and setting: with chain 2 H48R the figure was 1.1; with chain 2 A49D, 1.3.

The variants in another assay derive from B2. Briefly: flow cytometry, cell–cell method; read off a plot.
In the case of chain 2 H48D, chain 2 L52D, the ratio to parent was ~1.1.
The same measure, in the same setting: as for chain 2 H48D, chain 2 L52R, the figure is ~1.4; as for chain 2 H48D, chain 2 L52A, ~1.
The same measure, in the same setting: as for chain 2 G34R, chain 2 V36A, the figure is ~0.06; as for chain 2 G34A, chain 2 V36D, ~0.06.
chain 2 G34D, chain 2 V36A: the ratio to parent is ~0.07.
Same read-out and setting: as for chain 2 G34D, chain 2 V36R, the figure is ~0.05; as for chain 2 G34D, chain 2 V36D, ~0.06; as for chain 2 H48R, chain 2 L52A, ~1.2.
Still for that read-out and setting: with chain 2 H48A, chain 2 L52A the figure was ~0.88.

Another assay covers variants of B3. Briefly: flow cytometry on cells stained with soluble protein.
With chain 2 E77A, the ratio to parent worked out at 1.1.
Same read-out and setting: with chain 2 G51A the figure was 0.9; with chain 2 L56A, 1.1; with chain 2 L52A, 1.1.
The same measure, in the same setting: as for chain 2 N50A, the figure is 0.8.
On the same count and under the same terms, as for chain 2 L49A, the figure is 1.3.

Variants of B4 are the subject of a further assay. Briefly: flow cytometry, cell–protein method.
Take chain 2 S30H: the ratio to parent was found to be 0.6.
On the same count and under the same terms, as for chain 2 S30D, the figure is 0.8; as for chain 2 S30A, 0.9.
Same read-out and setting: as for chain 2 S98A, the figure is 1.1; as for chain 2 S98D, 1.1.
Same read-out and setting: with chain 2 G51D the figure was 0.3.
Turning to chain 2 A38W, the ratio to parent was determined as 1.1.
As for chain 2 A38D, the ratio to parent worked out at 0.1.
On the same count and under the same terms, as for chain 2 H48R, the figure is 1; as for chain 2 H48D, 1.1.
Same read-out and setting: with chain 2 G34R the figure was 0.1; with chain 2 G34A, 0.1.
As to chain 2 G34D, the ratio to parent amounted to 0.1.
Same read-out and setting: as for chain 2 T35D, the figure is 0.1.
Same read-out and setting: with chain 2 T35A the figure was 0.1; with chain 2 P17A, 0.1; with chain 2 A49D, 0.7.
The same measure, in the same setting: with chain 2 K26D the figure was 0.6; with chain 2 K26A, 0.7.
For chain 2 E8R, the ratio to parent came out at 0.1.
On the same count and under the same terms, as for chain 2 E8A, the figure is 0.1; as for chain 2 R5D, 0.1; as for chain 2 R5A, 0.2.
Same read-out and setting: with chain 2 L52R the figure was 0.8; with chain 2 L52D, 0.9.
On the same count and under the same terms, with chain 2 L52A the figure was 0.9; with chain 2 T99D, 1.3.
Consider chain 2 T99A, for which the ratio to parent stood at 1.1.
The same measure, in the same setting: with chain 2 L56A the figure was 1; with chain 2 L56D, 0.9.
Still for that read-out and setting: as for chain 2 H96D, the figure is 1; as for chain 2 N50D, 0.1.
Still for that read-out and setting: with chain 2 N50A the figure was 0.1.
chain 2 M18D: the ratio to parent was determined as 0.1.
The same measure, in the same setting: as for chain 2 M18A, the figure is 0.6; as for chain 2 V36D, 0.1.
On the same count and under the same terms, with chain 2 V36A the figure was 1; with chain 2 K77A, 1.1; with chain 2 K77D, 0.6.

The variants in the next assay derive from B4. Briefly: flow cytometry, cell–protein method; read off a plot.
For the variant chain 2 H48A, chain 2 L52A, the ratio to parent is ~1.4.
On the same count and under the same terms, as for chain 2 H48R, chain 2 L52A, the figure is ~1; as for chain 2 G34A, chain 2 V36D, ~0.01; as for chain 2 G34D, chain 2 V36R, ~0.01.
Same read-out and setting: as for chain 2 G34D, chain 2 V36A, the figure is ~0.01.
On the same count and under the same terms, as for chain 2 G34D, chain 2 V36D, the figure is ~0.01; as for chain 2 G34R, chain 2 V36A, ~0.01; as for chain 2 H48D, chain 2 L52D, ~0.76.
Take chain 2 H48D, chain 2 L52R: the ratio to parent is ~0.66.
